The nanobody polyreactivity screen of Harvey et al. (2022)

experiment: yeast display, Sf9 membrane polyspecificity reagent, FACS + sequencing; frameworks hold sequencing errors
Procedure, shortened: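 Nanobodies from a synthetic yeast display library (Saccharomyces cerevisiae BJ5465), induced 36–48 hours with galactose, were stained 1 hour at 4 °C with 10% biotinylated, detergent-solubilized Sf9 membrane reagent, enriched on streptavidin microbeads, then FACS-sorted. Anti-HA (expression) and streptavidin (reagent binding) fluorescence set low and high (top ~1%) gates. Polyreactivity labels come from the gate of origin. Genes were colony-PCR amplified, MiSeq 2 × 250 sequenced and filtered by CDR length.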

| Sequence | polyreactivity (PSR sort gate) |
| --- | --- |
| QVQLVESGGGLVQARGSLRLSCASSGITFWKYTMGCYRQAPGKESELVASIRIGGSTYYADSVKGRFTISRDNAKNTVYLQMNSLKPEDTAVYYCAAKGIYGLQGSPRSGYYYWGQGTQVTVSS | high polyreactivity |
| QVQLVESGGGLVQARGSLRLSCPASGLIFPAYAMGWYRQAPGKERELVATITWRGGSTYYADSVKGRFTISRDNAKNTVYLQMNSLKPEDTAVYYCATRPRYYYFRYDYWGQGTQVTVSS | high polyreactivity |
| QVQLVESGGGLVQARGSLSLSCAASGSIFYYNAIGWYRQPPGKERELVATITSAVSTNYADSVKGRFTISRANAKNPVYLQMNSLKPEDTAVYYCAADDYQVQYDYWGQGTQVTVSS | low polyreactivity |
| QVQLVESGGGLVQARGSLSLSCAATGSTSYINAMGWSSQAPWKERELVAAIRSGGSTKYADSVKGRFTISRDNAKNTVYLQMNSVLPEDSSVYYCAARNVYKTSGFRWVWNYDYWGQGTQVTVSS | high polyreactivity |
| QVQLVESGGGLVQAVGSHRLSSAASGFIFDYNAMGWYRQEPVKVRELVAAISVSDDSTYYADSVKGRFTISRDNAKNTVYLQLNSLKPEVPAGYYCAAEWWDVIAPYDYWGLGTQVTVSS | low polyreactivity |
| QVQLVESGGGLVQAVGSHRLSSAASGFTFRWYTMGWYRQAPGKERELVASIRYGGGSTYYADSVKGRFTISRDNAKNTVYLQMNCLKPEDTAVYYCAAESAWTSPYDYWGQGTQVTVSS | high polyreactivity |
| QVQLVESGGGLVQAVGSLRLSCAASGFTIIDNAMGWYRQARGKERELVAAISISGGRTYYADSVKGRFTISRDNAKNTVYLQMNSLKPEDTAVYYCAAGKHRRDDYCGQGTQVTVSS | high polyreactivity |
| QVQLVESGGGLVQAVGSLRLSCAASGLIFFYYSMGWYRPAPGKERELVAAIRTNYADSVKGRFTISRDNAKNTVYLQMNSLKREDTAAYYCAAESSQTPTSAFDYWGQGTQVTVSS | low polyreactivity |
| QVQLVESGGGLVQAVGSLRLSCAASGLTFYSNAMGWYRQAPGKERELVATISQDGGRTYADSLKGRFTISRDNAKNTVYLQMNSLKPEDTAVYYCAKVRERINYDYWGQGTQVTVSS | low polyreactivity |
| QVQLVESGGGLVQAVGSLRLSCAASGRIFGPNAMGWYRQAPGKERELVAAITGSGGSTYADSVKGRFTISRDNAKNTVYLQMNSLKPEDTAVYYCAKKTWYSYDWGQGTQVTVSS | high polyreactivity |
| QVQLVESGGGLVQAVGSLRLSCAASGRIFGYYVMGWYRQAPGKERELVAAITSNGGSTYYADSVKGRFTFSRDNAKNTVYLQMNSLKPEDTAVYYGNKDKRYYRYGYWGQGTQVTVSS | high polyreactivity |
| QVQLVESGGGLVQAVGSLRLSCAASGRTFQSYTMGWYRQAPGKEREFVAAFRDSGGSTYYADSVKGRFTISRDNAKNTVFLQMNSLKPEDTAVYYCAAYRPRKYDYWGQGTQVTVSS | high polyreactivity |
| QVQLVESGGGLVQAVGSLRLSCAASGRTFYGYALGWYRQQPGKVSELVAAISADTGRTRYADSVKGRFTISRDNAKNTVYLQMICLNPEDTAVYYCATRLFPQSRYYYWGQGTQVTVSS | high polyreactivity |
| QVQLVESGGGLVQAVGSLRLSCAASGSIFAVNTIGWYRQAPGKERELVASISQRGSSTYYADSVKGRFTISRDIAKNTVYLQMNSLIPEDTAVYYCAVVQRYWYAGIVPYDYWGQGTQVTVSS | high polyreactivity |
| QVQLVESGGGLVQAVGSLRLSCAASGSIFGAYAMGWYRQAPGKERELVAAITSGGSTNYADSVKGRFTISRDNAKNTVYLQMNSLKPEDTAVYYCAARRRYAKFRYDYWGQGTQVTVSS | high polyreactivity |
| QVQLVESGGGLVQAVGSLRLSCAASGSILASNAMGWYRQAPGKERELVAAITTSGGSTYYADSVKGRFTISRDNAKNTVYLQMNSLKPEDTAVYYCNAEYWLGRWLRYGYWGQGTQVTVSS | high polyreactivity |
| QVQLVESGGGLVQAVGSLRLSCAASGSIYGYAMGWYIQAPGKERELVAAISGRGGRTYYADSVKGRFTISRDNAKNTVYLQMNSLKPEDTAVYYCNFQWRYPYHYTVDYWGQGTQVTVSS | high polyreactivity |
| QVQLVESGGGLVQAVGSLRLSCAASVIIFDVNAMGWYRQAPAKERELVATISKRGGTTYYADSVKGRFTISRDNAKNTVYLQMYSLKPEDTAVYYCAARHQTLRSYRYDYWGQGTQVTVSS | low polyreactivity |
| QVQLVESGGGLVQAVGSLRLSFAASGFTFGRNSLGWYRQAPGKERELVAAMTSRVGSTYYADSVKGRFTISRDKAKNTLYLQMNSLKPEDTAVYYCAAVKGPERPTTPYDYWGQGTQVTVSS | high polyreactivity |
| QVQLVESGGGLVQAVVSLRLSCAASGRIFAYNAMGWYIQATGKERELVAAISSGGNTYYADSVKGRFTISRDNAKNTVYLQMNSLKPEDTAVYYCNAGVGWHRYYSNYDYWGLGTQVTVSS | low polyreactivity |
| QVQLVESGGGLVQDGGSLRLSCAASGRIFGYYAMGGYRQAPGKERELVASINGGGSTNYADSVKGRFTISRDNAKTTVYLQMNSLKPEDTAVYDCAAAQWAYWLLYNYWGHGTQVTVSS | low polyreactivity |

| Sequence | polyreactivity (PSR sort gate) |
| --- | --- |
| QVQLVESGGGLVQEGGRLRLSCAASGITFRYYAMGWYRQAPGKERELVAAISWGGGSTYYADSVKGRFTISRDNATNTVYLQMNSLKPEDTAVYYCNARGSVRPYGPRATLDYWGQGTQVTVSS | high polyreactivity |
| QVQLVESGGGLVQEGGSLRLICAASGSTFYDYAMGWYRQAPGKERELVAAINWSSDTTYYADSVKGRFTISRDNAKNTVYLQMNSMKPEDTAVYYCATDSAYRGYDYWGQGTQVTVSS | low polyreactivity |
| QVQLVESGGGLVQEGGSLRLRCAASGRIFYNYAMGCYRQAPGKERELVAAITGRGGRTYYADSVKGRFTISRDNAKNTVYLQINSLKPEDTAVYYCSVRAGTAGYPKYDYWGPGTQVTVSS | high polyreactivity |
| QVQLVESGGGLVQEGGSLRLRCAASGSTFIRYVMGWYRQAPGKERELVAGINSSGGSTNYADSVKGRFTISRDNAKNTVYLQMNSLKPVDTAVYYCNADLRSEYVYWGQGTQVTVSS | low polyreactivity |
| QVQLVESGGGLVQEGGSLRLSCAASESNFPRNAMGLYRKEPGKEREIVAAISSAGSTYYADSVKWRFTISRDNAKNTVYLQMNSLKQEDTAVYYCAARLYWPLIVVDLYGYDYWGQGNQVTVSS | low polyreactivity |
| QVQLVESGGGLVQEGGSLRLSCAASGFTFAYYAMGWYRQAPGKERELVASISYNGGITNYADSVKGRFTISRYNAKNTVYLQMNSLKPEDTAVYYCAAGVFFFTFDYWGQGTQVTVSS | low polyreactivity |
| QVQLVESGGGLVQEGGSLRLSCAASGFTFRQYAMGRSRQAPGKEMELVAAITKTGGSTYYADSVKGRFTISRDHAKNTVYLQMNSLKPEDPAVYYCNAARETRPRDYYWGQGTQVTVSS | low polyreactivity |
| QVQLVESGGGLVQEGGSLRLSCAASGFTFTSNAMGWYRQAPGKERELVAAITYSGGITYYADSVKGRFTISRDNAKNTVYLQMNSLKPEDTAVYYCAADSTPYVLSGNYDYWGQGTQVTVSS | low polyreactivity |
| QVQLVESGGGLVQEGGSLRLSCAASGFTVTDYAMGLYRQAPGKERELVAAITSSGGRTYYADSVKGRFTISRDNAKNTVYLQMNSLKPEDTAGYYCTARPHGSWFEYDYWGQGTEVTVSS | high polyreactivity |
| QVQLVESGGGLVQEGGSLRLSCAASGIIFDGNARGWYRQAPGKEKELVASITSDSSTNYADSVKGRFTISRDNAKNTVYLQMNSLKPEDTAVYYCAAAHWIAPRSDYWGQGTQVTLSS | low polyreactivity |
| QVQLVESGGGLVQEGGSLRLSCAASGRTFYINGLGWYRQAPGKEREFVASITWRGGRTYYADSVKGRFTISRDNAKNTVYLQMNSLKPEDTAVYYCNAVGLGGRATSRWYTHYYWGQGTQVTVSS | high polyreactivity |
| QVQLVESGGGLVQEGGSLRLSCAASGRTSNINAMGWYRQAPGKERELVAAINSDGSTYYAYSVKGRFTISRDNAKNTVYLQMNSLKPEDTAVYYCAAVSLFRDSQFDYWGQGTQVTVSS | low polyreactivity |
| QVQLVESGGGLVQEGGSLRLSCAASGSIFDTYAMGWYRQAPGKERELVAAISSGGRTYYADSVKGRFTISRDNAKNTDYFQMNSLKPEYTAVYYCAKERYQQGNYYRYGYWGQGTQVTVSS | high polyreactivity |
| QVQLVESGGGLVQEGGSLRLSCAASGSIFDVYAMGWYRQAPGKERELVAAISSSGSTYYADSVKGRFTISRDNAKNTVYLQMNSLKPEDTAVYYCAADQADDDDYYYWGQVTQVTVSS | low polyreactivity |
| QVQLVESGGGLVQEGGSLRLSCAASGSIFDVYAMGWYRQAPGKERELVAAISSSGSTYYADSVKGRFTISRDNAKNTVYLQMNSLKPEDTAVYYCASDQADDDDYYYWGQGNQVTVSS | low polyreactivity |
| QVQLVESGGGLVQEGGSLRLSCAASGSIFFPYAMGWYRQAPGKEREFFADITWSGGSTYYADSVKGRFTISRDNAKNTVYLQMNSLKPEDTAVYYCNTDYYLLSVVWFSYTLYEYWGQGTQVTLSS | high polyreactivity |
| QVQLVESGGGLVQEGGSLRLSCAASGSIFGYYAMGWYRQAPGKERELVAAISRSGGSTYYADSVKGRFTISRDNAKNTVSLQMNSLKPEDTAFYYCAADDYPYGNYYWGKGTQVTVSS | high polyreactivity |
| QVQLVESGGGLVQEGGSLRLSCAASGSIFPYYAMGWYRQAPGKERELVAAISSAGSTNYADSVKGRFTISRDNAKNTVYLQMNSLKPEDTAVYYCAADLFYREFDYWGQGTQVTVSS | low polyreactivity |
| QVQLVESGGGLVQEGGSLRLSCAASGSIFSGYAMGWYRPAPGKERELVAAISSSGGSTYYADSVKGRFTISRDNAKNTVYLQMNSLKPEDTAFYYCAADARWLWVYGAYGGLDYWGQGTQVTLSS | low polyreactivity |
| QVQLVESGGGLVQEGGSLRLSCAASGSILAGYAMGWYRQPPRKERELVDDITSGGDTYYADSVKGRFTISRDNAKNTVYLQMKSLKPEDTAVYYCNAVYEGRYEYAYYYRYDYWGQGTQVTVSS | high polyreactivity |
